Source: the supplement of paper PMC5998384

System: HeLa Kyoto
Assay: melting temperature (median over replicates), in situ; higher = more thermally stable
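Further: HeLa Kyoto cells synchronized by double thymidine or nocodazole block, proteins quantified by TMT10plex mass spectrometry, three independent biological replicates.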

Sequence	melting temperature (cell cycle stage: mitosis)	melting temperature (cell cycle stage: G1/S)
MASKTKASEALKVVARCRPLSRKEEAAGHEQILTMDVKLGQVTLRNPRAAPGELPKTFTFDAVYDASSKQADLYDETVRPLIDSVLQGFNGTVFAYGQTGTGKTYTMQGTWVEPELRGVIPNAFEHIFTHISRSQNQQYLVRASYLEIYQEEIRDLLSKEPGKRLELKENPETGVYIKDLSSFVTKNVKEIEHVMNLGNQTRAVGSTHMNEVSSRSHAIFIITVECSERGSDGQDHIRVGKLNLVDLAGSERQNKAGPNTAGGAATPSSGGGGGGGGSGGGAGGERPKEASKINLSLSALGNVIAALAGNRSTHIPYRDSKLTRLLQDSLGGNAKTIMVATLGPASHSYDESLSTLRFANRAKNIKNKPRVNEDPKDTLLREFQEEIARLKAQLEKRGMLGKRPRRKSSRRKKAVSAPPGYPEGPVIEAWVAEEEDDNNNNHRPPQPILESALEKNMENYLQEQKERLEEEKAAIQDDRSLVSEEKQKLLEEKEKMLEDLRREQQATELLAAKYKAMESKLLIGGRNIMDHTNEQQKMLELKRQEIAEQKRREREMQQEMMLRDEETMELRGTYTSLQQEVEVKTKKLKKLYAKLQAVKAEIQDQHDEYIRVRQDLEEAQNEQTRELKLKYLIIENFIPPEEKNKIMNRLFLDCEEEQWKFQPLVPAGVSSSQMKKRPTSAVGYKRPISQYARVAMAMGSHPRYRAENIMFLELDVSPPAVFEMEFSHDQEQDPRALHMERLMRLDSFLERPSTSKVRKSRSWCQSPQRPPPSTTHASLASASLRPATVADHE [KIF3C]	50.4 °C	–
MCVRSCFQSPRLQWVWRTAFLKHTQRRHQGSHRWTHLGGSTYRAVIFDMGGVLIPSPGRVAAEWEVQNRIPSGTILKALMEGGENGPWMRFMRAEITAEGFLREFGRLCSEMLKTSVPVDSFFSLLTSERVAKQFPVMTEAITQIRAKGLQTAVLSNNFYLPNQKSFLPLDRKQFDVIVESCMEGICKPDPRIYKLCLEQLGLQPSESIFLDDLGTNLKEAARLGIHTIKVNDPETAVKELEALLGFTLRVGVPNTRPVKKTMEIPKDSLQKYLKDLLGIQTTGPLELLQFDHGQSNPTYYIRLANRDLVLRKKPPGTLLPSAHAIEREFRIMKALANAGVPVPNVLDLCEDSSVIGTPFYVMEYCPGLIYKDPSLPGLEPSHRRAIYTAMNTVLCKIHSVDLQAVGLEDYGKQGDYIPRQVRTWVKQYRASETSTIPAMERLIEWLPLHLPRQQRTTVVHGDFRLDNLVFHPEEPEVLAVLDWELSTLGDPLADVAYSCLAHYLPSSFPVLRGINDCDLTQLGIPAAEEYFRMYCLQMGLPPTENWNFYMAFSFFRVAAILQGVYKRSLTGQASSTYAEQTGKLTEFVSNLAWDFAVKEGFRVFKEMPFTNPLTRSYHTWARPQSQWCPTGSRSYSSVPEASPAHTSRGGLVISPESLSPPVRELYHRLKHFMEQRVYPAEPELQSHQASAARWSPSPLIEDLKEKAKAEGLWNLFLPLEADPEKKYGAGLTNVEYAHLCELMGTSLYAPEVCNCSAPDTGNMELLVRYGTEAQKARWLIPLLEGKARSCFAMTEPQVASSDATNIEASIREEDSFYVINGHKWWITGILDPRCQLCVFMGKTDPHAPRHRQQSVLLVPMDTPGIKIIRPLTVYGLEDAPGGHGEVRFEHVRVPKENMVLGPGRGFEIAQGRLGPGRIHHCMRLIGFSERALALMKARVKSRLAFGKPLVEQGTVLADIAQSRVEIEQARLLVLRAAHLMDLAGNKAAALDIAMIKMVAPSMASRVIDRAIQAFGAAGLSSDYPLAQFFTWARALRFADGPDEVHRATVAKLELKHRI [ACAD10]	50.7 °C	–
MDCEVNNGSSLRDECITNLLVFGFLQSCSDNSFRRELDALGHELPVLAPQWEGYDELQTDGNRSSHSRLGRIEADSESQEDIIRNIARHLAQVGDSMDRSIPPGLVNGLALQLRNTSRSEEDRNRDLATALEQLLQAYPRDMEKEKTMLVLALLLAKKVASHTPSLLRDVFHTTVNFINQNLRTYVRSLARNGMD [BID]	55.5 °C	52.8 °C
MENGAVYSPTTEEDPGPARGPRSGLAAYFFMGRLPLLRRVLKGLQLLLSLLAFICEEVVSQCTLCGGLYFFEFVSCSAFLLSLLILIVYCTPFYERVDTTKVKSSDFYITLGTGCVFLLASIIFVSTHDRTSAEIAAIVFGFIASFMFLLDFITMLYEKRQESQLRKPENTTRAEALTEPLNA [CMTM6]	–	55.6 °C
MESMAVATDGGERPGVPAGSGLSASQRRAELRRRKLLMNSEQRINRIMGFHRPGSGAEEESQTKSKQQDSDKLNSLSVPSVSKRVVLGDSVSTGTTDQQGGVAEVKGTQLGDKLDSFIKPPECSSDVNLELRQRNRGDLTADSVQRGSRHGLEQYLSRFEEAMKLRKQLISEKPSQEDGNTTEEFDSFRIFRLVGCALLALGVRAFVCKYLSIFAPFLTLQLAYMGLYKYFPKSEKKIKTTVLTAALLLSGIPAEVINRSMDTYSKMGEVFTDLCVYFFTFIFCHELLDYWGSEVP [CAMLG]	–	57.8 °C
